Measurements from PMC4868954.

These substances were tested against complement component C3b (human) (UniProt P01024) (assay: SPR).

Point of comparison: “membrane-cofactor protein MCP CCP1–4 (residues 35–285), from E. coli (from UniProt P15529 35-285) (domain or fragment)”, Kd 350 nM. Against it:
- factor H FH CCP1–4 (domain or fragment) — 21-fold higher, 7200 nM
- smallpox inhibitor of complement enzymes, SPICE CCP1–4 (residues 19–263) (natural protein) — 3.7-fold higher, 1300 nM
- complement receptor 1 CR1 CCP15–17 (residues 942–1,136) (from UniProt P17927 942-1136) (domain or fragment) — 5.4-fold higher, 1900 nM
- decay-accelerating factor DAF CCP1–4 (domain or fragment) — 17-fold higher, 6100 nM
